Measured values as given in article PMC10932606.

Target: semiSWEET
Assay: native MS

With semiSWEET (natural protein) the percent dimer was over 95% and the stoichiometry N was 2.
